# From PMC10115415, “RNA binding induces an allosteric switch in Cyp33 to repress MLL1-mediated transcription”
# Columns and labels:
# Settings in all cases: protein: recombinant; tags: AGH N-terminal after intein cleavage
# [1] = target: T1, Cyp33 RRM (human, UniProt Q9UNP9 1-114); assay: NMR structure and titration; low affinity, multiple registers; NMR titrations: 20 mM KHPO4 pH 7, 40 mM KCl, 1 mM DTT, 289.15 K as printed (table S2 says 298.15 K for Kd); structures of complexes: 40 mM KCl, 20 mM KH2PO4 pH
# T1 sequence (Q9UNP9 1-114): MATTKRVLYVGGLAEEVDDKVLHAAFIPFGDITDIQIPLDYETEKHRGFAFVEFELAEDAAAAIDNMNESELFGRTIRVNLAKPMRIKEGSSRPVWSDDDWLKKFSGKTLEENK
# [2] = target: T1, Cyp33 RRM; assay: NMR titration; weak, fast exchange; NMR titrations: 20 mM KHPO4 pH 7, 40 mM KCl, 1 mM DTT, 289.15 K as printed (table S2 says 298.15 K for Kd); structures of complexes: 40 mM KCl, 20 mM KH2PO4 pH
# [3] = target: Cyp33 RRMΔα (human, UniProt Q9UNP9 1-90); assay: NMR structure and titration; single register, larger shifts than with a3; NMR titrations: 20 mM KHPO4 pH 7, 40 mM KCl, 1 mM DTT, 289.15 K as printed (table S2 says 298.15 K for Kd); structures of complexes: 40 mM KCl, 20 mM KH2PO4 pH
# Sequence of Cyp33 RRMΔα (Q9UNP9 1-90, stated change not applied): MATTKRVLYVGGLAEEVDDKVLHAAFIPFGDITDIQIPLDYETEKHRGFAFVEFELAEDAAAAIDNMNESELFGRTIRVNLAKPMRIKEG
# [4] = target: T1, Cyp33 RRM; assay: NMR titration; NMR titrations: 20 mM KHPO4 pH 7, 40 mM KCl, 1 mM DTT, 289.15 K as printed (table S2 says 298.15 K for Kd); structures of complexes: 40 mM KCl, 20 mM KH2PO4 pH
# [5] = target: Cyp33-K (RRM) (human, UniProt Q9UNP9 1-114, K83A); assay: as above
# Sequence of Cyp33-K (RRM) (Q9UNP9 1-114 K83A): as the sequence (Q9UNP9 1-114) above, with K83A counted along it
# [6] = target: Cyp33-RK (RRM) (human, UniProt Q9UNP9 1-114, R86A;K88A); assay: as above
# Sequence of Cyp33-RK (RRM) (Q9UNP9 1-114 R86A/K88A): as the sequence (Q9UNP9 1-114) above, with R86A, K88A counted along it
binder,measurement,setting,value
AAUAAA (ssRNA) [AAUAAA RNA (poly-A signal)],binding result,[1],binds
UAAUGUCG (ssRNA) [UAAUGUCG RNA],binding result,[2],binds
same,binding result,[3],binds
UAAUGU (ssRNA) [UAAUGU RNA],Kd,[4],~300 µM
same,Kd,[5],~1800 µM
same,Kd,[6],~2000 µM
